The text below walks through data of patent US12048733B2, “Method of treatment” (THE BIONICS INSTITUTE OF AUSTRALIA, priority 2017, dated 2024).

A short description of data set [1]: Clearance of radiolabelled neurotrophin-3 by whole cochlear gamma counts. Format: in vivo. On the procedure: In vivo studies were carried out to determine the drug payload and clearance of neurotrophin delivered in a supraparticle implanted into the ear after 4 hr, 3 day and 7 days of implantation. The objective was to determine the amount of neurotrophin remaining in the cochlea over time.
1 SP containing radiolabelled neurotrophin-3 was implanted into each cochlea. Cochleae were harvested following 4 hrs (n=5), 3 d (n=7) or 7 d (n=4). Whole cochlear gamma counts were measured to determine the clearance of neurotrophin-3 over time. After 1 week of implantation each SP contained ˜2 ug of neurotrophin-3 (˜40%) of initial loaded amount.
Further experiments (n=2) were carried out to examine clearance of neurotrophin-3 following round window delivery. 3 days after implantation—whole cochlear measurements were again used to determine the clearance of neurotrophin-3 from the round window membrane.

Data set [2] in a line: BDNF perilymph concentration by ELISA after SP implantation. To be noted: 2 electrosprayed SPs loaded with BDNF, n=2. Format: in vivo. How it is done:
Next, 2 SPs produced by electrospraying were loaded with BDNF and placed inside the cochlea. Serial perilymph samples (1 ul samples) were obtained from the apex of the cochlea at three days and one week post implantation (sampling techniques described in Plontke et al. (2007) Laryngoscope. 117:1191-1198) and samples were analysed using an ELISA.

Setting [3] is: after 1 week of implantation, 1 SP intracochlear.

In data set [1] (3 days after implantation, round window delivery), neurotrophin-3 displayed a neurotrophin-3 remaining of 47.4%. Besides, the neurotrophin-3 remaining in data set [1] (3 days, intracochlear delivery) worked out at 56%. For the same molecule, in data set [1] (setting [3]), the “amount of neurotrophin-3 remaining per SP” value was around 2 µg and the “neurotrophin-3 remaining (% of initial loaded amount)” value was around 40%.

B1: brain derived neurotrophic factor (protein, UniProt P23560 19-247, looked up)
Neurotrophic factor BDNF …: APMKEANIRGQGGLAYPGVRTHGTLESVNGPKAGSRGLTSLADTFEHVIEELLDEDQKVRPNEENNKDADLYTSRVMLSSQVPLEPPLLFLLEEYKNYLDAANMSMRVRRHSDPARRGELSVCDSISEWVTAADKKTAVDMSGGTVTVLEKVPVSKGQLKQYFYETKCNPMGYTKEGCRGIDKRHWNSQCRTTQSYVRALTMDSKKRIGWRFIRIDTSCVCTLTIKRGR
notes: neurotrophin; BDNF Human Protein (Geneway)
In the case of B1, the “peak BDNF perilymph concentration inside the cochlea” value in data set [2] (after 3 days) was 1707 ng/mL; in data set [2] (after 7 days), 775 ng/mL.
